Experimental findings from FireProtDB (doi:10.1016/0022-2836(81)90253-9) are described below.

The conditions of the data set: Sus scrofa, Thermal, DSC, reversible: yes, whole UniProt chain shown.
Where [1] appears, read: pH 6.5, sodium phosphate 5 mM, NaCl 100 mM.
Where [2] appears, read: pH 7.1, sodium phosphate 5 mM, NaCl 100 mM.

B1: Gastricsin wild type, P30879 (protein)
chain: SVIKVPLKKLKSIRQAMKEKGLLEEFLKTHKYDPAQRYRIGDISVALEPMAYLEAAYFGEISIGTPPQNFLVL
In general, Tm refers to the temperature at which the thermal transition is half complete. On to B1, for which the Tm runs as follows: (pH 6, sodium cacodylate 5 mM) 66 °C; under setting [1], 64.5 °C; (pH 6.5, sodium phosphate 5 mM) 61 °C; under setting [2], 56.3 °C. The “unfolding enthalpy (calorimetric)” value reads like this: (pH 6, sodium cacodylate 5 mM) 271 kcal/mol; under setting [1], 256 kcal/mol; (pH 6.5, sodium phosphate 5 mM) 240 kcal/mol; under setting [2], 202 kcal/mol. Also, the “unfolding enthalpy (van 't Hoff)” value stood at 174 kcal/mol (pH 6, sodium cacodylate 5 mM); 131 kcal/mol under setting [1]; 125 kcal/mol (pH 6.5, sodium phosphate 5 mM); 143 kcal/mol under setting [2].
